# Reference: paper doi:10.1101/2022.08.25.505315 (bioRxiv, 2022)
# B1: human malic enzyme 3 (mitochondrial NADP+-dependent malic enzyme 3), residues 46-604 (enzyme, UniProt Q16798 46-604, looked up)
# chain: LKKRGYDVTRNPHLNKGMAFTLEERLQLGIHGLIPPCFLSQDVQLLRIMRYYERQQSDLDKYIILMTLQDRNEKLFYRVLTSDVEKFMPIVYTPTVGLACQHYGLTFRRPRGLFITIHDKGHLATMLNSWPEDNIKAVVVTDGERILGLGDLGCYGMGIPVGKLALYTACGGVNPQQCLPVLLDVGTNNEELLRDPLYIGLKHQRVHGKAYDDLLDEFMQAVTDKFGINCLIQFEDFANANAFRLLNKYRNKYCMFNDDIQGTASVAVAGILAALRITKNKLSNHVFVFQGAGEAAMGIAHLLVMALEKEGVPKAEATRKIWMVDSKGLIVKGRSHLNHEKEMFAQDHPEVNSLEEVVRLVKPTAIIGVAAIAGAFTEQILRDMASFHERPIIFALSNPTSKAECTAEKCYRVTEGRGIFASGSPFKSVTLEDGKTFIPGQGNNAYVFPGVALGVIAGGIRHIPDEIFLLTAEQIAQEVSEQHLSQGRLYPPLSTIRDVSLRIAIKVLDYAYKHNLASYYPEPKDKEAFVRSLVYTPDYDSFTLDSYTWPKEAMNVQTV
# Target: the molecule itself
# Test: SEC
protein,measurement,value
B1,stoichiometry N,4
